From patent US20040086848A1 (University of Texas, published 2004)

T1: endogenous RANK of RAW264.7 cells (mouse, UniProt O35305 31-625)
T1 construct: whole, on cells; Immunoprecipitated from cell lysates with anti-RANK; The species follows from the mouse cell line
T1 sequence (looked up): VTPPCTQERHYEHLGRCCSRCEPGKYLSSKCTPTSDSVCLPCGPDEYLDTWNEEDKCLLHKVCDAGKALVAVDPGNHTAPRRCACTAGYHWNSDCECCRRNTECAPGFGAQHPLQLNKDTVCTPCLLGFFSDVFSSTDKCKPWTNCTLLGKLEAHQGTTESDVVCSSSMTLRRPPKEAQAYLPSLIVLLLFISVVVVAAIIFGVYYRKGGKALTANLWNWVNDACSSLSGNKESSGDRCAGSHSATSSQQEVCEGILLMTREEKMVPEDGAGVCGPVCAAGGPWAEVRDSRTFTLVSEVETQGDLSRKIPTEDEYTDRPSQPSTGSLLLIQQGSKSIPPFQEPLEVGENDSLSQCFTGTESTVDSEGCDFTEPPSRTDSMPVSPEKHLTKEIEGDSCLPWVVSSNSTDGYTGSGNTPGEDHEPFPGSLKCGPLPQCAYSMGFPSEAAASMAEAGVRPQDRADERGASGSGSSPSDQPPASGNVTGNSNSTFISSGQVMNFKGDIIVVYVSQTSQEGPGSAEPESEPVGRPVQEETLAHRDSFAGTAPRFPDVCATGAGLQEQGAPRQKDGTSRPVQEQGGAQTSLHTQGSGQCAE

B1: RAIN mutant K90/91A (from pCMV3×FLAG-hRAIN, stably expressed in RAW cells) (other, human, UniProt Q96GX9 1-242, looked up)
chain: MSGCDAREGDCCSRRCGAQDKEHPRYLIPELCKQFYHLGWVTGTGGGISLKHGDEIYIAPSGVQKERIQPEDMFVCDINEKDISGPSPSAALKKSQCTPLFMNAYTMRGAGAVIHTHSKAAVMATLLFPGREFKITHQEMIKGIKKCTSGGYYRYDDMLVVPIIENTPEEKDLKDRMAHAMNEYPDSCAVLVRRHGVYVWGETWEKAKTMCECYDYLFDIAVSMKKVGLDPSQLPVGENGIV
notes: range 1-242; not shown: 3×FLAG tag of pCMV3×FLAG-14 at the C-terminus
B2: RAIN mutant R194A (from pCMV3×FLAG-hRAIN, stably expressed in RAW cells) (other, human, UniProt Q96GX9 1-242, looked up)
chain: MSGCDAREGDCCSRRCGAQDKEHPRYLIPELCKQFYHLGWVTGTGGGISLKHGDEIYIAPSGVQKERIQPEDMFVCDINEKDISGPSPSKKLKKSQCTPLFMNAYTMRGAGAVIHTHSKAAVMATLLFPGREFKITHQEMIKGIKKCTSGGYYRYDDMLVVPIIENTPEEKDLKDRMAHAMNEYPDSCAVLVRAHGVYVWGETWEKAKTMCECYDYLFDIAVSMKKVGLDPSQLPVGENGIV
notes: as for B1

Legend:
[1] = biological target: the molecule itself; experiment: gel filtration chromatography
[2] = biological target: T1, endogenous RANK of RAW264.7 cells; experiment: interaction with endogenous RANK in RAW cells (data not shown)

Binder	binding result [1]	binding result [2]
B1	binds	binds
B2	binds	binds
